{"source": "paper PMC7615502", "origin": "cited, not measured here", "key": {"[1]": {"molecular_target": "IL-2Rβγ (Homo sapiens) (UniProt P14784)", "sequence (P14784 27-240, chain 1 of 2)": "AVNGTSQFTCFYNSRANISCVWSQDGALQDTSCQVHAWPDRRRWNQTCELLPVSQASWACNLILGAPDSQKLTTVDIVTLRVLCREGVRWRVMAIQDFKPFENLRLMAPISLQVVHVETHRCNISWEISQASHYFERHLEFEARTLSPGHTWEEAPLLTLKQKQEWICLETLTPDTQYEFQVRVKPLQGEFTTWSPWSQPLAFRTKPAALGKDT", "sequence (P31785 23-262, chain 2 of 2, further chain)": "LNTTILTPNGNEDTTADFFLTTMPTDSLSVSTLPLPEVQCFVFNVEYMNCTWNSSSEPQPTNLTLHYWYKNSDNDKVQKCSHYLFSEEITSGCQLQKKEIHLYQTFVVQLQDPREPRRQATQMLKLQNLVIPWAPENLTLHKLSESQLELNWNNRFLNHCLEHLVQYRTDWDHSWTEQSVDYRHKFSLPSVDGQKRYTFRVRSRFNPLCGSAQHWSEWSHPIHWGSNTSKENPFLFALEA"}, "[2]": {"molecular_target": "IL-2Rα (Homo sapiens) (UniProt P01589)", "sequence (P01589 22-240)": "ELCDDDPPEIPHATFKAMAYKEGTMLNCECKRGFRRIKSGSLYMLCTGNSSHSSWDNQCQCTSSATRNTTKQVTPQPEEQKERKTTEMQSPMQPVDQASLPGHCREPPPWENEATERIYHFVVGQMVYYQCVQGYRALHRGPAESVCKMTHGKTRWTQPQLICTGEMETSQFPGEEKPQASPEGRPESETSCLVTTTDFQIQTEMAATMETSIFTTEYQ"}}}
{"substance": "IL-2 (from UniProt P60568)", "values": [{"measurement": "Kd", "setting": "[1]", "value": 1, "unit": "nM"}, {"measurement": "Kd", "setting": "[2]", "value": 10, "unit": "nM"}]}
